Measured values: article PMC9112662, “Scaffold stability and P14′ residue steric hindrance in the differential inhibition of FXIIa by Aedes aegypti trypsin inhibitor versus Infestin-4” (Bioscience Reports, 2022)

Biological target: human Factor XIIa (human) (UniProt P00748)
Sequence (P00748 20-615): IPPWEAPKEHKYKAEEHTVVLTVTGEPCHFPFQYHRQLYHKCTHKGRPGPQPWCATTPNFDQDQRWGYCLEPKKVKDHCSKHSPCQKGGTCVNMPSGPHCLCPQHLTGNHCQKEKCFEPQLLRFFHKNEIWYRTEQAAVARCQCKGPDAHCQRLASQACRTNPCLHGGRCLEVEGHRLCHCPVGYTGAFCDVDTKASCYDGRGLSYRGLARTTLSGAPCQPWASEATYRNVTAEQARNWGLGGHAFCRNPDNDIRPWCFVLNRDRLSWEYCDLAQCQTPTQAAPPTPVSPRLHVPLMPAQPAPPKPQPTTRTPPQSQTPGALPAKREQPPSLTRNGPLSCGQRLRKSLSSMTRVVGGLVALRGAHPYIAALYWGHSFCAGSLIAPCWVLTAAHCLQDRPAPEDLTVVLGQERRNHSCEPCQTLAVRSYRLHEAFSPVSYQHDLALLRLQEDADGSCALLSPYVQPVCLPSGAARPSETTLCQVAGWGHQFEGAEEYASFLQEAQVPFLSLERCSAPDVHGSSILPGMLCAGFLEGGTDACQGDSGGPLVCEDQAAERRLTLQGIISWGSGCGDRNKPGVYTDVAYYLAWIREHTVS

Substance: AaTI_Inf4 C1C3+C5C6+N27G
- IC50 of inhibition of FXIIa activity, chromogenic assay (substrate S-2302): 0.0114 µM

Substance: Inf4_F10P+N12I (domain or fragment)
- IC50 of inhibition of FXIIa activity, chromogenic assay (substrate S-2302): 0.0228 µM

Substance: Inf4_F10P+N12I+V14M (domain or fragment)
- IC50 of inhibition of FXIIa activity, chromogenic assay (substrate S-2302): 0.0705 µM

Substance: Inf4_F10P+V14M (domain or fragment)
- IC50 of inhibition of FXIIa activity, chromogenic assay (substrate S-2302): 0.0421 µM

Substance: Inf4_G25N (domain or fragment)
- IC50 of inhibition of FXIIa activity, chromogenic assay (substrate S-2302): 0.0541 µM

Substance: Inf4_N12I+V14M (domain or fragment)
- IC50 of inhibition of FXIIa activity, chromogenic assay (substrate S-2302): 0.0079 µM
